# Measurements reported in PMC4713133 (Molecular Biology of the Cell, 2016).
# B1: Arl13b-GST (natural protein)
# chain: not shown
# How the values were obtained:
# Sec8-Myc = Sec8-Myc (rat, UniProt Q62824 1-975); assay: pull-down
# Sec5-Myc = Sec5-Myc (rat, UniProt O54921 1-924); assay: pull-down
# Chain of Sec5-Myc (O54921 whole entry): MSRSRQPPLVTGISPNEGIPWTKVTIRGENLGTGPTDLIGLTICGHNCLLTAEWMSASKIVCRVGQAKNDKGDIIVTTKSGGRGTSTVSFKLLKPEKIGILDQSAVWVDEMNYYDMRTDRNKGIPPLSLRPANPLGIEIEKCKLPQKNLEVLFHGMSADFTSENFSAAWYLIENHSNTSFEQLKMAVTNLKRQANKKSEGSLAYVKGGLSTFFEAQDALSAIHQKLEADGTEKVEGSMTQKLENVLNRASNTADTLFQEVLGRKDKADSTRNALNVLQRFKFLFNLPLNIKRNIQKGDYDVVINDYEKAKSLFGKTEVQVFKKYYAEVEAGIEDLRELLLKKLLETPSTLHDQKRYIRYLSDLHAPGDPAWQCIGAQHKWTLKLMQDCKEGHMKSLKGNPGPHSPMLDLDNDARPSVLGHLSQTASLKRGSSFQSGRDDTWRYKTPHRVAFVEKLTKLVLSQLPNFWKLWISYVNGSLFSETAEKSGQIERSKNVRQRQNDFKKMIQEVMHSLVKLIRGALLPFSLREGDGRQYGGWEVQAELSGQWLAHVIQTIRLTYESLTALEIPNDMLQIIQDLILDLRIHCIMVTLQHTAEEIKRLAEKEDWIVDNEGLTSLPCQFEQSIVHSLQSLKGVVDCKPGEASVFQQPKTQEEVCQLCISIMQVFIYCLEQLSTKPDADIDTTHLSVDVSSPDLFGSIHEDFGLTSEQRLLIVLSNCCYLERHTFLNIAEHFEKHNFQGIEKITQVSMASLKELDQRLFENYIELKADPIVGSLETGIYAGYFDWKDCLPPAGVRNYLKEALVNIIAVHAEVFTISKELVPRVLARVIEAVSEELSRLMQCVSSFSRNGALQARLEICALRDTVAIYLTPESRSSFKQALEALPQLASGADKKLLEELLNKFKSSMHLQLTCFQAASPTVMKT
# Chain of Sec8-Myc (Q62824 whole entry): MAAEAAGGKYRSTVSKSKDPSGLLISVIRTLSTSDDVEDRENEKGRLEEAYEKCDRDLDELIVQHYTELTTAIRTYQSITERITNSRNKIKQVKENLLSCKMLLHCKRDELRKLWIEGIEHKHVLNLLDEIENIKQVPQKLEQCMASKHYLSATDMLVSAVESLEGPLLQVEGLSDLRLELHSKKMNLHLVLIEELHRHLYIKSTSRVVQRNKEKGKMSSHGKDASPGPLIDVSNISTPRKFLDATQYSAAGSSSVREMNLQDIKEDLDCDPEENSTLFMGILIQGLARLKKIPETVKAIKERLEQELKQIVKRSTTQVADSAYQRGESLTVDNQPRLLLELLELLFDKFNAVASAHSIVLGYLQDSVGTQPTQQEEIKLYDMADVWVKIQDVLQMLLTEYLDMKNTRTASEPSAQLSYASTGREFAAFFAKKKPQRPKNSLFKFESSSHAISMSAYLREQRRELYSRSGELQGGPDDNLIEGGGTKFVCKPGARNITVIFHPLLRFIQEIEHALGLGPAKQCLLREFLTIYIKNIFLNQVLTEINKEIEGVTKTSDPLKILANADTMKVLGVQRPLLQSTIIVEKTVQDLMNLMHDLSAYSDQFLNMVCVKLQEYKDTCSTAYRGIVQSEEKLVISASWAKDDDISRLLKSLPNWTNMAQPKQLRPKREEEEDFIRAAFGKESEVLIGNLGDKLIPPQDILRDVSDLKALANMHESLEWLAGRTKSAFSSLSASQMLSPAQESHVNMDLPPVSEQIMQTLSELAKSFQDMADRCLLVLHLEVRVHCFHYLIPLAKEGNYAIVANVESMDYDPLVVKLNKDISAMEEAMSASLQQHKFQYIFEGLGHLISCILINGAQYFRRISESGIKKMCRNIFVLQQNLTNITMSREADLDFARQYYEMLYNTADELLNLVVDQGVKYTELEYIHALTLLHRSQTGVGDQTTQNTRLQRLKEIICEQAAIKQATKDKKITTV
binder,measurement,setting,value
B1,binding result,Sec8-Myc,binds
same,binding result,Sec5-Myc,binds
